Results published in patent US9902783B2, “Antibodies and pharmaceutical compositions containing same useful for inhibiting activity of metalloproteins” (Yeda Research and Development Co. Ltd., priority 2007, dated 2018).

Tests used:
[1] = target: T1, full length native MMP-2 secreted by HT1080 cells (Homo sapiens, UniProt P08253); assay: immunoprecipitation of HT1080 conditioned medium and western blot; format: binding; conditions: HT1080 conditioned medium, not activated
T1 construct: full length native MMP-2 secreted by human fibrosarcoma (HT1080) cell cultures; endogenous in cells; host or cells: HT1080 human fibrosarcoma cells, conditioned medium
T1 sequence (P08253 30-660): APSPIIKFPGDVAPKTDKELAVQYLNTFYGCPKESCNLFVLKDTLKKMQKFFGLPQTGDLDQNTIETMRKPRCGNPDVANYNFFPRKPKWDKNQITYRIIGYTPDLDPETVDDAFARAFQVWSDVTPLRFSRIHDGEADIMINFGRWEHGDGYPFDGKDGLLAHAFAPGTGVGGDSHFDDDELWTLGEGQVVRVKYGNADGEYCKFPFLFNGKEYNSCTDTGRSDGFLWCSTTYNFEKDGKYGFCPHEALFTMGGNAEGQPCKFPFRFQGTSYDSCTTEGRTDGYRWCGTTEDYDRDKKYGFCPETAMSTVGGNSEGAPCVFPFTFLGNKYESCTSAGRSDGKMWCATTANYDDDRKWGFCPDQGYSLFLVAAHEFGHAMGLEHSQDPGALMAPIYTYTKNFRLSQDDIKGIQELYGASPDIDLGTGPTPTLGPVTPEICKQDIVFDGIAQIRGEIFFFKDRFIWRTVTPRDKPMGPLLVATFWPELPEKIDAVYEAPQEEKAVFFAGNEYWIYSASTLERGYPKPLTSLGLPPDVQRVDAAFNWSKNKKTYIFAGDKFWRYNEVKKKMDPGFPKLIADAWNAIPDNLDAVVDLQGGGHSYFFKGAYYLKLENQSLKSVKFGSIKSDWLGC
Experimental: HT1080 cells were seeded in petri dishes. After reaching 80% confluence, the medium (DMEM supplemented with 10% FCS, nonessential amino acids, penicillin, streptomycin, sodium pyruvate, and L-glutamine) was changed to serum free medium (without FCS). Following another 24 h of incubation, conditioned medium (CM) was harvested from the adherent cells and concentrated using Millipore Centricon-10 (Bedford, Mass.). Concentrated supernatants were used for immunoprecipitations. CM was incubated with anti-1 (CoTCPP) mAb (15 μg/ml) overnight at 4° C. […] Beads were washed 3 times with PBS, suspended in SDS sample buffer, and heated to 95° C. for 3 min Immunoprecipitates were recovered by centrifugation and subjected to SDS/PAGE. After separation, proteins were transferred to nitrocellulose (NC) membranes and probed with anti-MMP-2 antibody.
To activate ProMMP-2 produced by HT1080 cells, 1 mM of 4-aminophenyl mercuric acetate (APMA) was added to the concentrated CM followed by 6 h incubation in 37° C. After activation, the CM was dialyzed (×3) against PBS at 4° C., to remove APMA Immunoprecipitation with the activated medium was performed as described above.

[2] = target: T2, MMP-2 catalytic domain (MMP-2cat) (Mus musculus, UniProt P33434); assay: immuno affinity pull down of MMP-2 catalytic domain; format: binding; conditions: SDS-PAGE
T2 construct: NP_032636.1; made in house; host or cells: BL-21 cells (E. coli)
Experimental: FIGS. 3A-3C are western blot images showing the ability of mouse IgG-Agarose immobilized mAbs to pull down recombinant MMP-2 catalytic domain (MMP-2cat) or Pro-MMP-2 and Pro-MMP-9 from solution. Antibodies used for each experiment are 6C6, 13E11, and 13E15. FIG. 3A—MMP-2cat (2 μg) was incubated with anti-mouse IgG-Agarose (cntl, lane1) or anti CoTCPP, ZnTCPP and Imisdp mAb (10 μg)-anti-mouse IgG-Agarose for 2 hr at 20° C., immunoprecipitates (lane 2, 3, 5) were centrifuged and washed three times, separated on SDS/PAGE gel and visualized by Coomassie-staining. […]
FIGS. 11A-11D are photographs and models illustrating that 6C6 binds only the active conformation of MMP9 and MMP2. […] FIGS. 11B,C: 6C6 mAb immobilized to protein A beads was analyzed for its ability to pull down ProMMP2, ProMMP9, or MMP2 catalytic fragment (lacking the hemopexin and pro domains) from solution. […]
MAbs (10 μg) were incubated with anti mouse IgG Agarose beads (Sigma) overnight at 4° C. in PBS. […] The proteins that remained bound to the beads were eluted with SDS sample buffer, fractionated by SDS-PAGE, and detected by staining with Coomassie blue.

T2 sequence (P33434 110-467): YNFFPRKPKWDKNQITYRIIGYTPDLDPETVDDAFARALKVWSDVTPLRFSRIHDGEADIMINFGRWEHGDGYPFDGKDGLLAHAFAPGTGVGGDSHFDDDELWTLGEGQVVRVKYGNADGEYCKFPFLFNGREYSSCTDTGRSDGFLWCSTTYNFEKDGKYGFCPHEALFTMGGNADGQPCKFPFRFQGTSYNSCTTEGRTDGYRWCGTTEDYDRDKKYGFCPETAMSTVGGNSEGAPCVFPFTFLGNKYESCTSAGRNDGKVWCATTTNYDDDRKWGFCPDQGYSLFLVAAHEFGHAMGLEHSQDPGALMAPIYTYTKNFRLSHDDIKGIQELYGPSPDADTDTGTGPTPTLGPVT

B1: 13E11: monoclonal antibody, IgG2b, raised against the hapten CoTCPP (antibody, V domains shown)
VH: EGGGLVQPGGSRKLSCAASGFTFTSFGMHWVRQAPEKGLEWVAYISSGNEIIYYADTVKGRFTISRDNPKNTLFLQMTSLRSEDTAMYYCARNYYRYGFYVMDYWGQG
VL: EIVVTQSPAILSASPGEKVTMTCRASSSVSYMHWYQQKPGSSPKPWIYATSNELASGVPARFSGSGSGTSYSLTISRVEAEDAATYYCQQWISNPLTFGAG
modifications: 13E11 mAb heavy chain; 13E11 mAb light chain
notes: monoclonal antibody, IgG2b, raised against the hapten CoTCPP
[1]
  binding to Pro-MMP-2: but not Pro-MMP-2

B2: 6C6: monoclonal antibody, IgG2a, raised against the hapten Imisdp; MMP-2 and MMP-9 inhibitory; SEQ ID NO: 1 (protein)
chain: CMETTQTPLSLPVSLGDQASISCRSSQSIVHSNGNTFLEWYLQKPGQSPKLLIYKVSNCRFSGVPDRFSGSGSGTDFTLKISRVEAEDLGVYYCFQASHVPPTFGGG
modifications: 6c6 mAb light chain
[2]
  binding to MMP-2 catalytic domain: formation of a specific complex
